{
  "source": "patent US20170183403A1",
  "about": "(UNIVERSIT T Z RICH, published 2017)",
  "key": {"Reference peptide no. 10": {"biological_target": "T1, Reference peptide no. 10", "T1 construct": "hIL-2 15-mer, first library, on microarray; also called peptide 10", "T1 peptide": "INNYKNPKLTRMLTF", "assay": "peptide microarray (RepliTope)", "method": "(§1) Additional incubations are with unrelated antibodies from the same isotype (mouse control IgG2a/lambda and mouse control IgG2a/kappa), and secondary antibodies (anti-mouse IgG (Thermo 84545, label DL650) or anti-mouse IgG (JIR 115-175-072, Label Cy5)) to assess unspecific binding due to the detection antibody. The experiments are performed essentially as described in Maksimov P, et al. 2012, PLoS One 7:e34212. doi:10.1371/journal. pone. 0034212.\n(§2) The determination of peptide-antibody binding was performed by RepliTope-analysis where the peptide microarray (triplicate) was incubated with the primary antibody followed by a fluorescently labelled secondary antibody directed against the Fc-part of the primary one. All steps were performed on a TECAN microarray processing station enabling highly reliable and reproducible washing and incubation steps. After performing the incubation steps and subsequent to the final washing steps (to remove the unbound secondary antibodies) the microarrays were dried using a nitrogen stream and scanned in a high resolution microarray scanning system with appropriate wavelength settings. Control incubations were performed with an unrelated antibody having the same isotype to exclude false positive signals.\n(§3) The resulting images were analyzed und quantified using spot-recognition software GenePix (Molecular Devices). For each spot, the mean signal intensity was extracted (between 0 and 65535 arbitrary units). For further data evaluation, the MMC2 values were determined. The MMC2 equals the mean value of all three instances on the microarray. Except the coefficient of variation (CV)—standard-deviation divided by the mean value—is larger 0.5, in this case the mean of the two closest values (MC2) is assigned to MMC2."}, "Reference peptide no. 11": {"biological_target": "T2, Reference peptide no. 11", "T2 construct": "hIL-2 15-mer, first library, on microarray; also called peptide 11", "T2 peptide": "YKNPKLTRMLTFKFY", "assay": "peptide microarray (RepliTope)", "method": "as §1, §2, §3"}, "Reference peptide no. 22": {"biological_target": "T3, Reference peptide no. 22", "T3 construct": "hIL-2 15-mer, first library, on microarray; also called peptide 22", "T3 peptide": "KPLEEVLNLAQSKNF", "assay": "peptide microarray (RepliTope)", "method": "as §1, §2, §3"}, "Reference peptide no. 23": {"biological_target": "T4, Reference peptide no. 23", "T4 construct": "hIL-2 15-mer, first library, on microarray; also called peptide 23", "T4 peptide": "EEVLNLAQSKNFHLR", "assay": "peptide microarray (RepliTope)", "method": "as §1, §2, §3"}, "Reference peptide no. 24": {"biological_target": "T5, Reference peptide no. 24", "T5 construct": "hIL-2 15-mer, first library, on microarray; also called peptide 24", "T5 peptide": "LNLAQSKNFHLRPRD", "assay": "peptide microarray (RepliTope)", "method": "as §1, §2, §3"}, "Reference peptide no. 26": {"biological_target": "T6, Reference peptide no. 26", "T6 construct": "hIL-2 15-mer, first library, on microarray; also called peptide 26", "T6 peptide": "KNFHLRPRDLISNIN", "assay": "peptide microarray (RepliTope)", "method": "as §1, §2, §3"}, "human interleukin-2": {"biological_target": "T7, human interleukin-2 (human, UniProt P60568 21-153)", "T7 construct": "also called hIL-2; human IL-2", "T7 sequence (P60568 21-153 limits assumed)": "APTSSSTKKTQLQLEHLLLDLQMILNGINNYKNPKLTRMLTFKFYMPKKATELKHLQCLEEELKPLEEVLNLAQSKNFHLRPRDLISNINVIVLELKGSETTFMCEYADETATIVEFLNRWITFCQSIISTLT", "assay": "SPR, antibody amine-coupled on GLM chip, hIL-2 in solution", "method": "For this experiment an amine coupling GLM chip was used. The activation of the carboxylic acid groups in the chip was done using a mix of 1-ethyl-3-3-dimethylaminopropyl carbodiimide hydrochlorid (EDC at 0.2 M) and sulfo N-hydroxysulfosuccinimids (s_NHS at 0.05M) at […] for 420 seconds (s). […] Deactivation was followed adding ethanolamine HCl at […] for 300 s. Finally human IL-2 was added at different concentrations (starting from 100 nM and followed by three-fold dilutions) at […], 600 s association, and 240 s dissociation.\nIn order to characterize the binding properties of the anti-human IL-2 mAbs the binding to human interleukin-2 was tested with surface plasmon resonance binding assays."}},
  "data": [
    {"binder": "NARA1 (antibody, mouse IgG2a, kappa, V domains shown, Mouse monoclonal from hybridoma; Isotype controls used were mouse IgG2a; also called anti-IL2 (NARA1) antibody; monoclonal antibody NARA1) VH: QVQLQQSGAELVRPGTSVKVSCKASGYAFTNYLIEWVKQRPGQGLEWIGVINPGSGGTNYNEKFKGKATLTADKSSSTAYMQLSSLTSDDSAVYFCARWRGDGYYAYFDVWGAGTTVTVSS VL: not shown", "values": [
      {"measurement": "signal intensity after subtraction of control signal", "setting": "Reference peptide no. 10", "value": 20900, "unit": "AU"},
      {"measurement": "signal intensity after subtraction of control signal", "setting": "Reference peptide no. 11", "value": 1190, "unit": "AU"},
      {"measurement": "signal intensity after subtraction of control signal", "setting": "Reference peptide no. 22", "value": 0, "unit": "AU"},
      {"measurement": "signal intensity after subtraction of control signal", "setting": "Reference peptide no. 23", "value": 32, "unit": "AU"},
      {"measurement": "signal intensity after subtraction of control signal", "setting": "Reference peptide no. 24", "value": 282, "unit": "AU"},
      {"measurement": "signal intensity after subtraction of control signal", "setting": "Reference peptide no. 26", "value": 0, "unit": "AU"},
      {"measurement": "Kd", "setting": "human interleukin-2", "value": 1.2, "unit": "nM"},
      {"measurement": "koff", "setting": "human interleukin-2", "value": "2.08e-05", "unit": "s⁻¹"}
    ]}
  ]
}
